From IntAct's records for PubMed 16905657

B1: Clathrin heavy chain 1 (Arabidopsis thaliana (Mouse-ear cress)), Q0WNJ6 (parent)
chain: MAAANAPIIMKEVLTLPSVGIGQQFITFTNVTMESDKYICVRETAPQNSVVIIDMNMPMQPLRRPITADSALMNPNSRILALKAQVPGTTQDHLQIFNIEAKAKLKSHQMPEQVAFWKWITPKMLGLVTQTSVYHWSIEGDSEPVKMFDRTANLANNQIINYKCSPNEKWLVLIGIAPGSPERPQLVKGNMQLFSVDQQRSQALEAHAASFAQFKVPGNENPSILISFASKSFNAGQITSKLHVIELGAQPGKPSFTKKQADLFFPPDFADDFPVAMQVSHKFNLIYVITKLGLLFVYDLETASAIYRNRISPDPIFLTSEASSVGGFYAINRRGQVLLATVNEATIIPFISGQLNNLELAVNLAKRGNLPGAENLVVQRFQELFAQTKYKEAAELAAESPQGILRTPDTVAKFQSVPVQAGQTPPLLQYFGTLLTRGKLNSYESLELSRLVVNQNKKNLLENWLAEDKLECSEELGDLVKTVDNDLALKIYIKARATPKVVAAFAERREFDKILIYSKQVGYTPDYMFLLQTILRTDPQGAVNFALMMSQMEGGCPVDYNTITDLFLQRNLIREATAFLLDVLKPNLPEHAFLQTKVLEINLVTFPNVADAILANGMFSHYDRPRVAQLCEKAGLYIQSLKHYSELPDIKRVIVNTHAIEPQALVEFFGTLSSEWAMECMKDLLLVNLRGNLQIIVQACKEYCEQLGVDACIKLFEQFKSYEGLYFFLGSYLSMSEDPEIHFKYIEAAAKTGQIKEVERVTRESNFYDAEKTKNFLMEAKLPDARPLINVCDRFGFVPDLTHYLYTNNMLRYIEGYVQKVNPGNAPLVVGQLLDDECPEDFIKGLILSVRSLLPVEPLVAECEKRNRLRLLTQFLEHLVSEGSQDVHVHNALGKIIIDSNNNPEHFLTTNPYYDSKVVGKYCEKRDPTLAVVAYRRGQCDEELINVTNKNSLFKLQARYVVERMDGDLWEKVLTEENEYRRQLIDQVVSTALPESKSPEQVSAAVKAFMTADLPHELIELLEKIVLQNSAFSGNFNLQNLLILTAIKADPSRVMDYINRLDNFDGPAVGEVAVDAQLYEEAFAIFKKFNLNVQAVNVLLDNVRSIERAVEFAFRVEEDAVWSQVAKAQLREGLVSDAIESFIRADDTTQFLEVIRASEDTNVYDDLVRYLLMVRQKVKEPKVDSELIYAYAKIERLGEIEEFILMPNVANLQHVGDRLYDEALYEAAKIIYAFISNWAKLAVTLVKLQQFQGAVDAARKANSAKTWKEVCFACVDAEEFRLAQICGLNIIIQVDDLEEVSEYYQNRGCFNELISLMESGLGLERAHMGIFTELGVLYARYRYEKLMEHIKLFSTRLNIPKLIRACDEQQHWQELTYLYIQYDEFDNAATTVMNHSPEAWEHMQFKDIVAKVANVELYYKAVHFYLQEHPDIINDLLNVLALRLDHTRVVDIMRKAGHLRLIKPYMVAVQSNNVSAVNEALNEIYAEEEDYDRLRESIDLHDSFDQIGLAQKIEKHELVEMRRVAAYIYKKAGRWKQSIALSKKDNMYKDCMETASQSGDHDLAEQLLVYFIEQGKKECFATCLFVCYDLIRPDVALELAWINNMIDFAFPYLLQFIREYSGKVDELIKDKLEAQKEVKAKEQEEKDVMSQQNMYAQLLPLALPAPPMPGMGGGGYGPPPQMGGMPGMSGMPPMPPYGMPPMGGY
partner: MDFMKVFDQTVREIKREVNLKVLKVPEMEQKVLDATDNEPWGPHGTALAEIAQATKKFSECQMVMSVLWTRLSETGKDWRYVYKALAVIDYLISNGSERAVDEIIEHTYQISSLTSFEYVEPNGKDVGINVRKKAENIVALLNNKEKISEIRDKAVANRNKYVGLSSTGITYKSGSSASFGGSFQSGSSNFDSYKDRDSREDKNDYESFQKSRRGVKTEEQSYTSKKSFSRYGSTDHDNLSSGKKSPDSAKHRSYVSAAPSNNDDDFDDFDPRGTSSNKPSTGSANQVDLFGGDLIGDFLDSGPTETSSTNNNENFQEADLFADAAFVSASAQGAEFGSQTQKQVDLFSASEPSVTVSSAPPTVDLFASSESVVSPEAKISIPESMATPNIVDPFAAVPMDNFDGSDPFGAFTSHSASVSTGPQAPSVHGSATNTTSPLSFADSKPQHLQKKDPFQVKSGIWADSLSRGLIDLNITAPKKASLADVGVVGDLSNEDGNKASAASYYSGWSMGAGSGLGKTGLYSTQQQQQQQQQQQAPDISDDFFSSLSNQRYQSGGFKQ

Variants of: B1
Details: with epn1_arath EPSIN1, Q8VY07

| Variant | effect of a mutation on the interaction |
| --- | --- |
| L470R | disrupting interaction |
